Source: publication PMC12168134, “Improving the solubility of single domain antibodies using VH‐like hallmark residues” (Protein Science : A Publication of the Protein Society, 2025)

B1: Nlgn2 extracellular domain with His6 tag in the C-terminus (domain or fragment, mouse, UniProt Q69ZK9 15-678, looked up)
chain: QRGGGGPGGGAPGGPGLGLGSLGEERFPVVNTAYGRVRGVRRELNNEILGPVVQFLGVPYATPPLGARRFQPPEAPASWPGVRNATTLPPACPQNLHGALPAIMLPVWFTDNLEAAATYVQNQSEDCLYLNLYVPTEDGPLTKKRDEATLNPPDTDIRDSGKKPVMLFLHGGSYMEGTGNMFDGSVLAAYGNVIVVTLNYRLGVLGFLSTGDQAAKGNYGLLDQIQALRWLSENIAHFGGDPERITIFGSGAGASCVNLLILSHHSEGLFQKAIAQSGTAISSWSVNYQPLKYTRLLAAKVGCDREDSTEAVECLRRKSSRELVDQDVQPARYHIAFGPVVDGDVVPDDPEILMQQGEFLNYDMLIGVNQGEGLKFVEDSAESEDGVSASAFDFTVSNFVDNLYGYPEGKDVLRETIKFMYTDWADRDNGEMRRKTLLALFTDHQWVAPAVATAKLHADYQSPVYFYTFYHHCQAEGRPEWADAAHGDELPYVFGVPMVGATDLFPCNFSKNDVMLSAVVMTYWTNFAKTGDPNQPVPQDTKFIHTKPNRFEEVVWSKFNSKEKQYLHIGLKPRVRDNYRANKVAFWLELVPHLHNLHTELFTTTTRLPPYATRWPPRTPGPGTSGTRRPPPPATLPPESDIDLGPRAYDRFPGDSRDYSTELS
notes: Neuroligin 2 (Nlgn2), mouse, extracellular domain, residues 15-678; Construct used to immunise the alpaca; main SEC peak was a dimer; also called recombinant Nlgn2 extracellular domain; mouse Nlgn2 (15-678); source: Expi293F cells, supernatant, purified (Ni-NTA, SEC); not shown: His6, C-terminal, kept
B2: Biotinylated recombinant Nlgn2 extracellular domain with Avitag (domain or fragment, mouse, UniProt Q69ZK9 15-678, looked up)
chain: B1 chain
modifications: biotin on the Avitag (biotinylated with BirA)
notes: Neuroligin 2 (Nlgn2), extracellular domain; residues 15-678 of mouse Nlgn2 are stated only for the His6 construct used for immunisation, not for this Avitag construct; probably the same; Eluted as a dimeric peak in SEC; also called Nlgn2 with Avitag; Biotinylated Nlgn2; source: purified by SEC, biotinylated with BirA; not shown: Avitag, C-terminal, kept

Tests used:
[1] = target: the molecule itself; experiment: SEC; Hiload 16/600 Superdex 200 pg in PBS; Nlgn2 extracellular domain with His6
[2] = target: the molecule itself; experiment: SEC; Nlgn2 with Avitag; 10 mM HEPES-NaOH pH 7.4, 150 mM NaCl, 3 mM CaCl2

Protein | stoichiometry N [1] | stoichiometry N [2]
B1 | 2 | –
B2 | – | 2
